Key:
[1] = system: C57BL/6J mice subjected to middle cerebral artery occlusion (MCAO); assay: MCAO stroke model: infarct size (TTC) and Bederson score; assay type: in vivo, mouse; settings: 60 minutes MCAO, 24 hours
Method: MCAO model: C57BL/6J mice (12-16 week-old male, 25-30 g) were subjected to middle cerebral artery occlusion (MCAO) using the intraluminal filament technique (Docol 602145) for 60-minutes followed by reperfusion as described in Eldahshan, et al., American Journal of Physiology Heart and Circulatory Physiology, 316:H1192-h201 (2019). […] A heating pad was used to maintain body temperature at 37° C. […] Sham surgery involved all the regular surgery steps except the filament insertion. Mice were deeply anesthetized at 24 hours and sacrificed by trans-cardial perfusion with PBS then brains were collected and sectioned for triphenyl tetrazolium chloride (TTC) staining or homogenized in RIPA lysis buffer for western blotting. […]
The stroke experiment involved behavioral scoring and manual quantification of the infarct size, and was conducted in a blinded fashion following the STAIR criteria. […]
Infarct size analysis: Brain infarct size was determined based on TTC staining of brain sections as described in Eldahshan, et al., American Journal of Physiology Heart and Circulatory Physiology, 316:H1192-h201 (2019). Images of TTC-stained sections were analyzed in a blinded fashion using ImageJ software [National Institutes of Health (NIH)], and the infarct size was calculated with edema correction using the following formula: 100×[nonstroked−(stroked−infarct)]/nonstroked. […]

[2] = Optic nerve crush (ONC) model: PEG-A1 penetration (Western blot, flat-mount immunolabeling); assay type: in vivo, mouse; settings: Western blot at 24 hours, flat-mount immunolabeling at 7 days
Method: (§1) Mouse retinal ischemia-reperfusion (IR) injury and traumatic optic neuropathy (TON) models: All experiments were performed in accordance with the ARVO Statement for the Use of Animals in Ophthalmic and Vision Research and were approved by the institutional animal care and use committee (Animal Welfare Assurance no. D16-00197). Wild-type (WT) C57BL/6J mice (10-12 weeks old) were anesthetized using ketamine/xylazine mixture then subjected to retinal ischemia-reperfusion (IR) injury or optic nerve crush (ONC) to model traumatic optic neuropathy (TON) as described in Shosha, et al., Cell death & disease, 7:e2483-e (2016) and Xu, et al., Frontiers in Neuroscience, 12:970 (2018). Mice were sacrificed at 24 hours or 7 days after by deep anesthesia followed by trans-cardial perfusion with PBS or thoracotomy and eyeballs were collected and fixed in 4% PFA for immunolabeling or retinas were extracted without fixation and homogenized in Radioimmunoprecipitation Assay (RIPA) lysis buffer for Western blotting.
Western blotting: Western blotting on retina or brain was conducted as described in Fouda, A Y, et al., Cell death & Disease, 9:1001 (2018). Membranes were probed with anti-PEG (RevMAb Biosciences, 1:1000) and anti-albumin (Bethyl Laboratories, 1:5000). Uncropped blots are included in FIG. 22. […]

[3] = human, in vivo; cited from earlier work
[4] = system: mice subjected to optic nerve crush (ONC); assay: Optic nerve crush (ONC) model of traumatic optic neuropathy: neuroprotection by NeuN labeling; assay type: in vivo, mouse; settings: 7 days post-ONC, treated at 3 hours and day 4; vehicle group 62%
Method: as §1, with “Mice were sacrificed at 24 hours or 7 days after by deep anesthesia followed by trans-cardial perfusion with PBS or thoracotomy and eyeballs were collected and fixed in 4% PFA for immunolabeling or retinas were extracted without fixation and homogenized in Radioimmunoprecipitation Assay (RIPA) lysis buffer for Western blotting.” left out
Evaluation of retinal neurodegeneration: Retina flat-mounts and explants were immunolabeled for the neuronal marker, NeuN (Millipore), as previously described in Shosha, et al., Cell death & disease, 7:e2483-e (2016). Images were collected and analyzed in a blinded fashion using a semi-automated method. […] NeuN-positive cells were quantified using ImageJ software ‘Batch processing’ function. […] The macro was validated every time it was used to make sure it is compatible with the set of images being analyzed. […]

[5] = system: OIR retinas (TNFα, IL-6, MCP1, iNOS, A1, FGF2, CNTF, IL-10 mRNA); assay: OIR mouse model: qPCR of retinal inflammation markers and growth factors; assay type: in vivo
Method: PBS was used as vehicle control. Pups were anesthetized before treatment by intraperitoneal (i.p.) injection of ketamine/xylazine mixture. Intravitreal injections were performed using a 36-gauge NanoFil needle mounted to a 10-μL Hamilton syringe (World Precision Instruments). Two treatment strategies were employed. […] The P9 time point was selected based on the fact that vaso-obliteration occurs within the first 48 hours of hyperoxia treatment (Connor, et al., Nature Protocols, 4:1565-1573 (2009); Lange, et al., Graefe's archive for clinical and experimental ophthalmology, 247:1205-1211 (2009); Gu, et al., Investigative ophthalmology & visual science, 43:496-502 (2002)).
However, variability was relatively high in the OIR retinas and this protective effect was statistically significant only for TNFα.

[6] = OIR retinas, P13 or P17, not statistically significant
[7] = OIR retinas, did not reach statistical significance

B1: PEG-A1: recombinant human arginase (rhArg) covalently attached to methoxy polyethylene glycol (mPEG-SPA; MW 5,000) via succinamide propionic acid (SPA) linker (protein, UniProt P05089 1-322, looked up)
Arginase-1: MSAKSRTIGIIGAPFSKGQPRGGVEEGPTVLRKAGLLEKLKEQECDVKDYGDLPFADIPNDSPFQIVKNPRSVGKASEQLAGKVAEVKKNGRISLVLGGDHSLAIGSISGHARVHPDLGVIWVDAHTDINTPLTTTSGNLHGQPVSFLLKELKGKIPDVPGFSWVTPCISAKDIVYIGLRDVDPGEHYILKTLGIKYFSMTEVDRLGIGKVMEETLSYLLGRKKRPIHLSFDVDGLDPSFTPATGTPVVGGLTYREGLYITEEIYKTGLLSGLDIMEVNPSLGKTPEEVTRTVNTAVAITLACFGLAREGNHKPIDYLNPPK
modifications: mPEG-SPA 5 kDa conjugate
notes: recombinant human arginase (rhArg) covalently attached to methoxy polyethylene glycol (mPEG-SPA; MW 5,000) via succinamide propionic acid (SPA) linker
- Bederson score [1]: trend towards improved Bederson score that did not reach statistical significance
- infarct size (TTC, percent of contralesional hemisphere) ([1]; vehicle 41%): 34%
- penetration into brain or sham contralateral retina/optic nerve after ONC [2]: not into the brain or sham contralateral retina/optic nerve
- penetration into retina/optic nerve tissue after ONC [2]: effective penetration
- safety and tolerability in humans [3]: safe and well-tolerated
- neuroprotection after ONC (NeuN labeling and quantification) [4]: 78%
- iNOS mRNA levels ([5]; OIR WT retinas): significantly reduced
- A1 mRNA ([5]; OIR retinas): mRNA upregulation
- FGF2 mRNA ([5]; OIR retinas): mRNA upregulation
- IL-6 expression (qPCR) [5, 6]: reduced the expression
- MCP1 expression (qPCR) [5, 6]: reduced the expression
- TNFα expression (qPCR) ([5]; OIR retinas, P13 or P17, statistically significant): reduced the expression
- CNTF mRNA [5, 7]: mRNA upregulation
- IL-10 mRNA [5, 7]: mRNA upregulation
